Measurements reported in patent US20260043004A1 (IMMPACT BIO, published 2026).

Target: T1, anti-CD19/CD20 CAR having the amino acid sequence of SEQ ID NO: 2 (construct CC314)
T1 construct: Chimeric antigen receptor on the surface of transduced T cells: Leu16 scFv (VL-VH), (G4S)4, FMC63 scFv (VH-VL), IgG4 spacer, CD28 TM, 4-1BB, CD3 zeta; also called CD19/20 CAR; CD 19/20 CAR
Assay: flow cytometry staining of T cells (donor 1917) transduced with CD19/20 CAR lentiviral vector

T1 sequence (chain, as listed by the source): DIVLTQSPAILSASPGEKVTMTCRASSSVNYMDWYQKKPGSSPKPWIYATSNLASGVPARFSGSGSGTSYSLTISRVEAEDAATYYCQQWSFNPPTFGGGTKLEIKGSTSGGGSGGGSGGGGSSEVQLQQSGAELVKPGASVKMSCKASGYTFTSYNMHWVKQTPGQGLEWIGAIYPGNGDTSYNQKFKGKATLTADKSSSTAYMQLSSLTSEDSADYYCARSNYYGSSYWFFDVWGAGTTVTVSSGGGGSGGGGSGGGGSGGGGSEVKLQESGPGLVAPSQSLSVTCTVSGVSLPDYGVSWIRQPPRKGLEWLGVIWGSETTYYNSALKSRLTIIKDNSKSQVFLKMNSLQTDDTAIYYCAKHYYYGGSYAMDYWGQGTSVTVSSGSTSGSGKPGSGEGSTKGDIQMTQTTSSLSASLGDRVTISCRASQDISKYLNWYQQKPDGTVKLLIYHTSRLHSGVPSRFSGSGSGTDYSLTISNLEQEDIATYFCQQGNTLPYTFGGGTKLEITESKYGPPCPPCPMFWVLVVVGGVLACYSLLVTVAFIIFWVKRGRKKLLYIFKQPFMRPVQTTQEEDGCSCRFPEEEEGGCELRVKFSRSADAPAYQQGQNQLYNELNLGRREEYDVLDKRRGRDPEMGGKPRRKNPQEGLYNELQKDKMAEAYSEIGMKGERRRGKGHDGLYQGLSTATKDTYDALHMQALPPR

B1: CD20 Protein-Biotin (Acros) (other, UniProt P11836 1-297, looked up)
chain: MTTPRNSVNGTFPAEPMKGPIAMQSGPKPLFRRMSSLVGPTQSFFMRESKTLGAVQIMNGLFHIALGGLLMIPAGIYAPICVTVWYPLWGGIMYIISGSLLAATEKNSRKCLVKGKMIMNSLSLFAAISGMILSIMDILNIKISHFLKMESLNFIRAHTPYINIYNCEPANPSEKNSPSTQYCYSIQSLFLGILSVMLIFAFFQELVIAGIVENEWKRTCSRPKSNIVLLSAEEKKEQTIEIKEEVVGLTETSSQPKNEEDIEIIPIQEEEEEETETNFPEPPQDQESSPIENDSSP
modifications: biotin (site not stated)
notes: Bought detection reagent
B1 was tested, and the “% Positive Cells” value was 68.1%.
